Results taken from US20260008815A1, “CYCLIC PEPTIDE OR SALT THEREOF, AND USES THEREOF” (FUJIFILM Corporation, priority 2023, published 2026).
Bridge positions count the residues as written; N and C are the ends. Ends that are not written are not given here. COCH2 = acetyl group that carries the bridge

B1: cyclic peptide SEQ ID NO: 173 (peptide)
peptide: YCEWNYLDPEQYQYFIYFK(COCH2)Y
modifications: thioether 2-19 (inferred)
B2: cyclic peptide SEQ ID NO: 194 (peptide)
peptide: YCEENHLDPEQYQYFIYFK(COCH2)Y
modifications: thioether 2-19 (inferred)
B3: cyclic peptide SEQ ID NO: 211 (peptide)
peptide: YCEENYLFPEQYQYFIYFK(COCH2)Y
modifications: thioether 2-19 (inferred)
B4: cyclic peptide SEQ ID NO: 186 (peptide)
peptide: YCEENLLDPEQYQYFIYFK(COCH2)Y
modifications: thioether 2-19 (inferred)
B5: cyclic peptide SEQ ID NO: 196 (peptide)
peptide: YCEENYVDPEQYQYFIYFK(COCH2)Y
modifications: thioether 2-19 (inferred)
B6: cyclic peptide SEQ ID NO: 188 (peptide)
peptide: YCEENWLDPEQYQYFIYFK(COCH2)Y
modifications: thioether 2-19 (inferred)
B7: cyclic peptide SEQ ID NO: 189 (peptide)
peptide: YCEENNLDPEQYQYFIYFK(COCH2)Y
modifications: thioether 2-19 (inferred)
B8: cyclic peptide SEQ ID NO: 203 (peptide)
peptide: YCEENYTDPEQYQYFIYFK(COCH2)Y
modifications: thioether 2-19 (inferred)
B9: cyclic peptide SEQ ID NO: 176 (peptide)
peptide: YCESNYLDPEQYQYFIYFK(COCH2)Y
modifications: thioether 2-19 (inferred)
B10: cyclic peptide SEQ ID NO: 177 (peptide)
peptide: YCETNYLDPEQYQYFIYFK(COCH2)Y
modifications: thioether 2-19 (inferred)
B11: cyclic peptide SEQ ID NO: 192 (peptide)
peptide: YCEENDLDPEQYQYFIYFK(COCH2)Y
modifications: thioether 2-19 (inferred)
B12: cyclic peptide SEQ ID NO: 193 (peptide)
peptide: YCEENRLDPEQYQYFIYFK(COCH2)Y
modifications: thioether 2-19 (inferred)
B13: cyclic peptide SEQ ID NO: 185 (peptide)
peptide: YCEETYLDPEQYQYFIYFK(COCH2)Y
modifications: thioether 2-19 (inferred)
B14: cyclic peptide SEQ ID NO: 210 (peptide)
peptide: YCEENYLVPEQYQYFIYFK(COCH2)Y
modifications: thioether 2-19 (inferred)
B15: cyclic peptide SEQ ID NO: 195 (peptide)
peptide: YCEENYIDPEQYQYFIYFK(COCH2)Y
modifications: thioether 2-19 (inferred)
B16: cyclic peptide SEQ ID NO: 204 (peptide)
peptide: YCEENYEDPEQYQYFIYFK(COCH2)Y
modifications: thioether 2-19 (inferred)
B17: cyclic peptide SEQ ID NO: 183 (peptide)
peptide: YCEEQYLDPEQYQYFIYFK(COCH2)Y
modifications: thioether 2-19 (inferred)
B18: cyclic peptide SEQ ID NO: 198 (peptide)
peptide: YCEENYYDPEQYQYFIYFK(COCH2)Y
modifications: thioether 2-19 (inferred)
B19: cyclic peptide SEQ ID NO: 199 (peptide)
peptide: YCEENYWDPEQYQYFIYFK(COCH2)Y
modifications: thioether 2-19 (inferred)
B20: cyclic peptide SEQ ID NO: 175 (peptide)
peptide: YCEQNYLDPEQYQYFIYFK(COCH2)Y
modifications: thioether 2-19 (inferred)
B21: cyclic peptide SEQ ID NO: 190 (peptide)
peptide: YCEENQLDPEQYQYFIYFK(COCH2)Y
modifications: thioether 2-19 (inferred)
B22: cyclic peptide SEQ ID NO: 181 (peptide)
peptide: YCEEGYLDPEQYQYFIYFK(COCH2)Y
modifications: thioether 2-19 (inferred)
B23: cyclic peptide SEQ ID NO: 187 (peptide)
peptide: YCEENFLDPEQYQYFIYFK(COCH2)Y
modifications: thioether 2-19 (inferred)
B24: cyclic peptide SEQ ID NO: 184 (peptide)
peptide: YCEESYLDPEQYQYFIYFK(COCH2)Y
modifications: thioether 2-19 (inferred)
B25: cyclic peptide SEQ ID NO: 197 (peptide)
peptide: YCEENYFDPEQYQYFIYFK(COCH2)Y
modifications: thioether 2-19 (inferred)
B26: cyclic peptide SEQ ID NO: 201 (peptide)
peptide: YCEENYQDPEQYQYFIYFK(COCH2)Y
modifications: thioether 2-19 (inferred)
B27: cyclic peptide SEQ ID NO: 174 (peptide)
peptide: YCENNYLDPEQYQYFIYFK(COCH2)Y
modifications: thioether 2-19 (inferred)
B28: cyclic peptide SEQ ID NO: 205 (peptide)
peptide: YCEENYRDPEQYQYFIYFK(COCH2)Y
modifications: thioether 2-19 (inferred)
B29: cyclic peptide SEQ ID NO: 206 (peptide)
peptide: YCEENYHDPEQYQYFIYFK(COCH2)Y
modifications: thioether 2-19 (inferred)
B30: cyclic peptide SEQ ID NO: 200 (peptide)
peptide: YCEENYNDPEQYQYFIYFK(COCH2)Y
modifications: thioether 2-19 (inferred)
B31: cyclic peptide SEQ ID NO: 202 (peptide)
peptide: YCEENYSDPEQYQYFIYFK(COCH2)Y
modifications: thioether 2-19 (inferred)
B32: cyclic peptide SEQ ID NO: 191 (peptide)
peptide: YCEENSLDPEQYQYFIYFK(COCH2)Y
modifications: thioether 2-19 (inferred)
B33: cyclic peptide SEQ ID NO: 209 (peptide)
peptide: YCEENYLIPEQYQYFIYFK(COCH2)Y
modifications: thioether 2-19 (inferred)
B34: cyclic peptide SEQ ID NO: 208 (peptide)
peptide: YCEENYLLPEQYQYFIYFK(COCH2)Y
modifications: thioether 2-19 (inferred)
B35: cyclic peptide SEQ ID NO: 182 (peptide)
peptide: YCEEWYLDPEQYQYFIYFK(COCH2)Y
modifications: thioether 2-19 (inferred)
B36: cyclic peptide SEQ ID NO: 178 (peptide)
peptide: YCEDNYLDPEQYQYFIYFK(COCH2)Y
modifications: thioether 2-19 (inferred)
B37: cyclic peptide SEQ ID NO: 180 (peptide)
peptide: YCEHNYLDPEQYQYFIYFK(COCH2)Y
modifications: thioether 2-19 (inferred)
B38: cyclic peptide SEQ ID NO: 207 (peptide)
peptide: YCEENYLGPEQYQYFIYFK(COCH2)Y
modifications: thioether 2-19 (inferred)
B39: cyclic peptide SEQ ID NO: 179 (peptide)
peptide: YCERNYLDPEQYQYFIYFK(COCH2)Y
modifications: thioether 2-19 (inferred)

Molecular target: T1, Recombinant Human FGFR2 alpha (IIIc) Fc Chimera Protein, CF (R&D systems, 712-FR-050) (human, UniProt P21802 22-377)
T1 construct: bought; not shown: Fc part of the chimera
Assay: ELISA on plate-bound FGFR2-Fc
Experimental: First, 5 ng of Recombinant Human FGFR2 alpha (IIIc) Fc Chimera Protein (R&D systems, 712-FR-050) was immobilized in each well of a 96-well plate, and blocked with Pierce Protein-Free (PBS) Blocking Buffer (Thermo, 37572), and a peptide diluted with Can Get Signal Immunoreaction Enhancer Solution I (TOYOBO, NKB-101) was then added and reacted at room temperature for 3 hours. After washing with 0.05% Tween 20-containing phosphate buffered saline (PBS), an anti-Myc antibody (Cell Signaling, 14038S) diluted with Can Get Signal Immunoreaction Enhancer Solution II (TOYOBO, NKB-101) was added and reacted at room temperature for 2 hours. After washing with 0.05% Tween 20-containing PBS, SuperSignal ELISA Femto Substrate (Thermo, 37075) was added, and the luminescence amount was measured. The dose-response relationship was calculated from using the difference between the luminescence amount in the well in which FGFR was immobilized and the luminescence amount in the well in which FGFR was not immobilized, and the concentration of the peptide at the time of reaction, and the binding affinity to FGFR was evaluated according to the following evaluation criteria. The evaluation result preferably satisfies the evaluation criteria A, B, or C.

T1 sequence (P21802 22-377, change not shown): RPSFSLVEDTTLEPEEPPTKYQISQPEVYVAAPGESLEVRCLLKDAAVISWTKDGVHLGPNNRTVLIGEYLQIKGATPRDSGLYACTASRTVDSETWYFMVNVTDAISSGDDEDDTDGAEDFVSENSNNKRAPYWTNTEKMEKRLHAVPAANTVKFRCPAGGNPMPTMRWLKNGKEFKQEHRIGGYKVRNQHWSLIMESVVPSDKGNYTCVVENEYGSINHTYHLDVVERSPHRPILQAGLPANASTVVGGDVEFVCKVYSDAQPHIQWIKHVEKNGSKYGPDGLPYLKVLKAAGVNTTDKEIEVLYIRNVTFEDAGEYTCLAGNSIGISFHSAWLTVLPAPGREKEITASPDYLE

Row | Binder | ELISA luminescence signal at 10 nmol/L peptide, relative to SEQ ID NO: 47 (=1)
1 | B1 | ≥ 0.7 ratio
2 | B2 | ≥ 0.7 ratio
3 | B3 | ≥ 0.7 ratio
4 | B4 | 0.1 to 0.5 ratio
5 | B5 | ≥ 0.7 ratio
6 | B6 | ≥ 0.7 ratio
7 | B7 | 0.5 to 0.7 ratio
8 | B8 | ≥ 0.7 ratio
9 | B9 | ≥ 0.7 ratio
10 | B10 | ≥ 0.7 ratio
11 | B11 | 0.1 to 0.5 ratio
12 | B12 | 0.1 to 0.5 ratio
13 | B13 | 0.1 to 0.5 ratio
14 | B14 | 0.1 to 0.5 ratio
15 | B15 | ≥ 0.7 ratio
16 | B16 | 0.1 to 0.5 ratio
17 | B17 | 0.1 to 0.5 ratio
18 | B18 | ≥ 0.7 ratio
19 | B19 | ≥ 0.7 ratio
20 | B20 | ≥ 0.7 ratio

Row | Binder | ELISA luminescence signal at 10 nmol/L peptide, relative to SEQ ID NO: 47 (=1)
21 | B21 | 0.1 to 0.5 ratio
22 | B22 | 0.5 to 0.7 ratio
23 | B23 | ≥ 0.7 ratio
24 | B24 | 0.1 to 0.5 ratio
25 | B25 | ≥ 0.7 ratio
26 | B26 | ≥ 0.7 ratio
27 | B27 | ≥ 0.7 ratio
28 | B28 | ≥ 0.7 ratio
29 | B29 | ≥ 0.7 ratio
30 | B30 | 0.1 to 0.5 ratio
31 | B31 | 0.5 to 0.7 ratio
32 | B32 | 0.1 to 0.5 ratio
33 | B33 | 0.1 to 0.5 ratio
34 | B34 | 0.1 to 0.5 ratio
35 | B35 | 0.1 to 0.5 ratio
36 | B36 | ≥ 0.7 ratio
37 | B37 | ≥ 0.7 ratio
38 | B38 | ≥ 0.7 ratio
39 | B39 | ≥ 0.7 ratio
